According to US20110280881A1, “NOVEL ANTI-HSP90 MONOCLONAL ANTIBODY” (RIKEN, priority 2010, published 2011):

Tests used:
HSP90 = assay: Western blot of DC2.4 dendritic cell line extract with anti-HSP90 antibodies; assay type: binding; settings: SDS-PAGE
Procedure: A BALE/c mouse was twice immunized with 50 μg of human recombinant HSP90α (prepared using an Escherichia coli expression vector supplied by Professor Takayuki Nemoto at the Nagasaki University School of Dentistry; see J. Biol. Chem. 272:26179-26187, 1997). The adjuvant used was 50 μl of TiterMax Gold (TiterMax, Ga., USA). Three days after final immunization, splenocytes were taken out from the immunized mouse and fused with P3U1 myeloma cells in a 1:1 ratio by means of polyethylene glycol 4000. The fused cells were seeded to a 96-well plate at 5000 cells/well and cultured in an HAT selection culture broth (an RPMI containing 10% FCS, supplemented with 0.1 mM hypoxanthine, 0.016 mM thymidine, and […] aminopterin) for 10 days. The antibodies against HSP90a present in the supernatants in wells containing proliferated cells were detected by ELISA. The hybridomas secreting the antibodies against HSP90α were re-seeded at 0.2 cells/well and further cultured using an HT selection culture broth (an RPMI containing 10% FCS, supplemented with 0.1 mM hypoxanthine and 0.016 mM thymidine) for 10 days. For the antibodies in the supernatants of proliferated cells, it was confirmed using ELISA and Western blotting that antibodies against HSP90 were secreted. […]

mouse HSP90α = assay: Epitope mapping by ELISA with biotinylated overlapping peptides; assay type: binding; settings: 12-amino-acid overlapping peptides, antibody 1 μg/ml, OD405
Procedure: Epitope mapping was performed using biotinylated overlapping peptides. The biotinylated overlapping peptides were prepared as described in a publicly known document (J. Immunological Methods 2002; 267:27-35). The epitope mapping was performed using a library of 12-amino-acid-long synthetic peptides each having an overlap of four amino acids.
After an avidin-coated plate was blocked with BSA, the above-described biotinylated overlapping peptides (1.25-3.75 mg/ml) were added. The plate was incubated at room temperature for 2 hours, after which it was washed with PBS/Tween 20 to remove the unreacted biotinylated overlapping peptides. Each anti-HSP90 monoclonal antibody (1 μg/ml) was added, and the plate was incubated at room temperature for 2 hours. The plate was washed with PBS/Tween 20 to remove the unreacted antibody, after which anti-mouse IgG-ALP (BD Pharmingen, used at a 2000-fold dilution) was added, and the plate was incubated at room temperature for 1 hour. The plate was washed with PBS/Tween 20 to remove the unreacted anti-mouse IgG-ALP, after which a pNPP solution (KPL, 1 mg/ml) was added, and the plate was incubated at room temperature for 3 hours to cause color development. After the color development, the plate was subjected to measurement of OD405 nm. […]

OT-I CD8+ T cells = assay: In vivo cross-presentation assay with free 6H8 antibody administered concurrently; set-up: species or system mouse; settings: 72 hours
Procedure: (1) CFSE-labeled CD8^+ T cells of an OT-I/CD45.1 mouse were transferred to recipient mice from the tail vein, with 6H8-OVA [or 6H8 (F(ab′)2)—OVA, or OVA, or IgG2a-OVA] (0.3 μg) and the free 6H8 antibody [or 6H8 (F(ab′)2) or IgG2a] (30 μg) administered from the tail vein concurrently. (2) 72 hours later, the spleen was recovered from each mouse, and 2×10^6 splenocytes were stained with the PE-CD45.1 antibody in a 96-well round-bottomed plate for 30 minutes (while cooling on ice). (3) The CFSE intensity of CD45.1-positive cells (OT-I CD8^+ T cells) was determined using FACS Canto (BD).

cell surface HSP90 = assay: FACS of 6H8-OVA bound to DC2.4 and DC2.4L cells with anti-OVA antibody; assay type: binding
Procedure: Furthermore, using DC2.4L cells lacking cell surface HSP90 (a line detectable with 6H8 antibody, and showing decreased expression levels of cell surface HSP90 and H-2K^b; obtained during cultivation of DC2.4 and established by passage culture), the specificity of 6H8-OVA for cell surface HSP90 was examined. DC2.4 and DC2.4L cells were incubated along with the fractions 15 to 19 containing 6H8-OVA (mixture) (30 μg/ml), after which the cells were stained with the biotinylated anti-OVA monoclonal antibody and PE-Cy5 streptavidin, and analyzed by FACS.

specific CTL = assay: Specific CTL induction in immunized mice, comparison with IFA+OVA257-264; assay type: in vivo, mouse; settings: immunized twice at 1-week interval, tail vein; tetramer-positive cells in CD8-positive cells
Procedure: Mice were immunized twice with 6H8-OVA or IFA+OVA at a 1-week interval. For 6H8-OVA, the specified amount of 6H8-OVA was diluted in 200 μl of PBS and administered from the tail vein. For IFA+OVA, an emulsion was prepared so that the specified amount of OVA257-264 peptide would be contained in the 200 μl dose, and subcutaneously administered. The emulsion was prepared by mixing the required amount of the OVA257-264 peptide in PBS in advance, and adding an equal amount of IFA (SIGMA: F5506) thereto.
Seven days after final immunization, the spleen of each recipient mouse was collected and finely loosened using tweezers, and splenocytes were recovered. A pellet of splenocytes was prepared in a 15-ml tube, and 2 ml of an FCS-free complete RPMI containing the OVA257-264 peptide (final concentration 10^−5 M) was added thereto. With the lid of the tube loosened, the tube was allowed to stand in an incubator at 37° C. with 5% CO2 for 1 hour. Subsequently, the culture broth RPMI (containing 10% FCS) was added to adjust the total volume to 20 ml, and 2 ml each was put into a 24-well plate.
After 5 days of cultivation, the cells were recovered and stained using the H-2K^b+OVA257-264-specific tetramer (MBL: TS-5001-1) and FITC-anti-mouse CD8a (eBioscience: 11-0081), and induction of specific CTL was confirmed using FACS Canto. […]

B1: 6H8: anti-HSP90 monoclonal antibody produced by hybridoma FERM BP-11222; epitope … (antibody)
VH: QVQLQQSGPELVKPGASVRISCKASGYTFTSYYIHWVKQRPGQGLEWIGWIYPGNVNTKYNEKFKGKATLTADKSSSTAYMQLSSLTSEDSAVYFCARYGNYPFAYWGQGTLVTVSAAKTTAPSVYPLAPVCGDTTGSSVTLGCLVKGYF
VL: DVVMTQTPLSLPVSLGDQASISCRSSQSLVHSNGNTYLHWYLQKPGQSPKLLIYKVSNRFSGVPDRFSGSGSGTDFTLKISRVEAEDLGVYFCSQSTHVPPTFGGGTKLEIKRADAAPTVSIFPPSSEQLTSGGASVVCFLNNFYPKDINVKWKIDGS
For B1, the “detection of HSP90 in Western blot” value (HSP90) was “detected HSP90 as a single band”, the “epitope region mapped (amino acid numbers)” value (mouse HSP90α) was “HSP90α713-724” and the “effect of concurrently administered free antibody on OT-I CD8+ T cell proliferation reaction by 6H8-OVA” value (OT-I CD8+ T cells; free antibody 30 μg with 6H8-OVA 0.3 μg) was “remarkably enhanced”.

B2: 6H8-OVA: high molecular weight conjugate of the 6H8 antibody and maleimide-activated OVA (conjugate)
VH: B1 VH
VL: B1 VL
chain: GSIGAASMEFCFDVFKELKVHHANENIFYCPIAIMSALAMVYLGAKDSTRTQINKVVRFDKLPGFGDSIEAQCGTSVNVHSSLRDILNQITKPNDVYSFSLASRLYAEERYPILPEYLQCVKELYRGGLEPINFQTAADQARELINSWVESQTNGIIRNVLQPSSVDSQTAMVLVNAIVFKGLWEKAFKDEDTQAMPFRVTEQESKPVQMMYQIGLFRVASMASEKMKILELPFASGTMSMLVLLPDEVSGLEQLESIINFEKLTEWTSSNVMEERKIKVYLPRMKMEEKYNLTSVLMAMGITDVFSSSANLSGISSAESLKISQAVHAAHAEINEAGREVVGSAEAGVDAASVSEEFRADHPFLFCIKHIATNAVLFFGRCVSP
In the case of B2, the “staining of DC2.4L cells with anti-OVA antibody after incubation with conjugate” value (cell surface HSP90; DC2.4L cells lacking cell surface HSP90, 30 μg/ml) is reported as “not recognized by the OVA monoclonal antibody”, the “staining of DC2.4 cells with anti-OVA antibody after incubation with conjugate” value (cell surface HSP90; DC2.4 cells expressing cell surface HSP90, 30 μg/ml) is reported as “recognized by the anti-OVA monoclonal antibody” and the “proliferation reaction of adoptively transferred OT-I CD8+ T cells” value (OT-I CD8+ T cells; 0.3 μg alone) is reported as “slight proliferation reaction”. The “CTL induction compared with IFA+OVA” value (specific CTL) was “as effective as, or more effective than, IFA+OVA”.
